Reference: patent US20130336885A1 (Genentech, published 2013)

B1: chimeric monoclonal antibody 8E11 (antibody, human IgG1, V domains shown)
VH: QVQLQQSGTELMKPGASVKISCKATGYTFSAYWIEWIKQRPGHGLEWIGEILPGSDSTDYNEKFKVKATFSSDTSSNTVYIQLNSLTYEDSAVYYCARGGHYGSLDYWGQGTTLKVSS
VL: NIVLTQSPASLAVSLGQRATISCRASESVDNYGNSFMHWYQQKPGQPPKLLIYLASNLESGVPARFSGSGSRTDFTLTIDPVEADDAATYYCQQNYEDPFTFGSGTKVEIKR
notes: also called ch8E11; chimeric 8E11
B2: humanized monoclonal antibody 8E11.v2 (antibody, human IgG1, kappa, V domains shown)
VH: EVQLVQSGAEVKKPGASVKVSCKASGYTFSAYWIEWVRQAPGQGLEWIGEILPGSDSTDYNEKFKVRATFTSDTSTSTVYLELSSLRSEDTAVYYCARGGHYGSLDYWGQGTLVTVSS
VL: DIVMTQSPDSLAVSLGERATINCRASESVDNYGNSFMHWYQQKPGQPPKLLIYLASNLESGVPDRFSGSGSGTDFTLTISSLQAEDVAVYYCQQNYEDPFTFGQGTKVEIKR
notes: It was assessed as an IgG; also called hu8E11.v2; hu8E11v2

Columns and labels:
[1] = biological target: T1, human LgR5 ECD (amino acids 22-557 fused to His-Fc expressed in a baculovirus system, or amino acids 22-558 … (human, UniProt O75473 22-557)); experiment: BIAcore-3000 SPR, IgG captured on goat anti-human Fc, human LgR5 ECD-Fc injected, 25 C, 1:1 Langmuir model
T1 construct: not shown: C-terminal His-tagged Fc
T1 sequence: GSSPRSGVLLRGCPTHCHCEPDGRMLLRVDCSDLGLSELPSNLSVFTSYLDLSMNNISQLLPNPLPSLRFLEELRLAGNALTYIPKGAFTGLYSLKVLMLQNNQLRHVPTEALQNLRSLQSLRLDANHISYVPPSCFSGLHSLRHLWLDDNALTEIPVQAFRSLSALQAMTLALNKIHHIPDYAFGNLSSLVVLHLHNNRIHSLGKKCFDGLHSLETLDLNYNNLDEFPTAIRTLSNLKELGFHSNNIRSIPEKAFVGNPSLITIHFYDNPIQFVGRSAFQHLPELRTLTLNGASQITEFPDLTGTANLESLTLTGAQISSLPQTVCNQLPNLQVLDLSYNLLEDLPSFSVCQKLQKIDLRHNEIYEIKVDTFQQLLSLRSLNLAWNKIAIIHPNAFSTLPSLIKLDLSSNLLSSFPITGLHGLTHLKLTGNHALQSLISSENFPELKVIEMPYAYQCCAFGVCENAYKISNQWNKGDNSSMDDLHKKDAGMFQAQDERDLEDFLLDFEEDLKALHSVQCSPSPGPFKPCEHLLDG
Method: The affinity of each 8E11 IgG variant for human LgR5 was determined by surface plasmon resonance using a BIAcore™-3000. BIAcore™ research grade CMS chips were activated with 1-ethyl-3-(3-dimethylaminopropyl) carbodiimide (EDC) and N-hydroxysuccinimide (NHS) reagents according to the supplier's instructions. Goat anti-human Fc IgGs were coupled to the chips to achieve approximately 10,000 response units (RU) in each flow cell. Unreacted coupling groups were blocked with 1M ethanolamine. For kinetics measurements, anti-LGR5 antibodies were captured to achieve approximately 300 RU. Two-fold serial dilutions of human LgR5ECD (amino acids 22-557 fused to His-Fc expressed in a baculovirus system, or amino acids 22-558 fused to Fc expressed from CHO cells; 125 nM to 0.49 nM) were injected in HBS-P buffer (0.01M HEPES pH7.4, 0.15M NaCl, 0.005% surfactant P20) at 25° C. with a flow rate of 30 μl/min. Association rates (kₒₙ) and dissociation rates (koff) were calculated using a 1:1 Langmuir binding model (BIAcore™ Evaluation Software version 3.2). The equilibrium dissociation constant (Kd) was calculated as the ratio koff/kₒₙ.

[2] = biological target: T2, gD epitope-tagged mouse LgR5 expressed on stably transfected 293 cells (mouse, UniProt Q9Z1P4 22-907); experiment: Scatchard analysis, competition of 125I-labeled with unlabeled antibody on 293 cells stably expressing mouse LgR5
T2 construct: also called gD-tagged mouse LgR5
T2 sequence: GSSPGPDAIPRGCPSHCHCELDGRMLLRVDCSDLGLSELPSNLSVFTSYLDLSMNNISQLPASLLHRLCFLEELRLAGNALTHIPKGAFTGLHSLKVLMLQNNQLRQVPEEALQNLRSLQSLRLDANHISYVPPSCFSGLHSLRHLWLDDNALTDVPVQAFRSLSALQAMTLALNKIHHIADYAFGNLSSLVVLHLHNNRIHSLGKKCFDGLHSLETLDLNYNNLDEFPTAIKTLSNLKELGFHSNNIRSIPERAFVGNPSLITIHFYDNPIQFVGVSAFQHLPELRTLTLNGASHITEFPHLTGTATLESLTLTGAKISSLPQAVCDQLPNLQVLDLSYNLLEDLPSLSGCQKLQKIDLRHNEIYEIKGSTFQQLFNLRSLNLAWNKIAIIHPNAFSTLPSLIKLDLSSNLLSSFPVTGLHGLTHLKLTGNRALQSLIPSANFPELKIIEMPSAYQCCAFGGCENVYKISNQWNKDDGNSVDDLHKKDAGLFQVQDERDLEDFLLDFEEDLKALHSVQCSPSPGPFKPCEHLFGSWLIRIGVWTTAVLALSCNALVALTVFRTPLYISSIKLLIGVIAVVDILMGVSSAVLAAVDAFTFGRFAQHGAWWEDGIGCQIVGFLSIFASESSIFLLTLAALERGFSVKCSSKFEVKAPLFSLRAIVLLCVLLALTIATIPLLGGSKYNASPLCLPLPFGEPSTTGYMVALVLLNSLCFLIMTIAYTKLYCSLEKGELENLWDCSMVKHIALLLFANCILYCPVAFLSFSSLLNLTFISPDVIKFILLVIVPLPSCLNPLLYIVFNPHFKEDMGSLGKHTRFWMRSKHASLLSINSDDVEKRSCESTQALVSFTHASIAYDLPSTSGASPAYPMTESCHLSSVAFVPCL
Method: Scatchard analysis was performed following standard procedures (Holmes et al., Science 256:1205-1210 (1992)) to determine the relative binding affinities of YW353, ch8E11 and hu8E11v2 antibodies.
Anti-LgrS antibodies were [I¹²⁵] labeled using the indirect Iodogen method. […] Competition assay mixtures of 50 μL volume containing a fixed concentration of [I¹²⁵] labeled antibody and decreasing concentrations of serially diluted, unlabeled antibody were placed into 96-well plates. 293 cells stably expression human, rat, or mouse LgrS were cultured in growth media at 37° C. in 5% CO₂. Cells were detached from the flask using Sigma Cell Dissociation Solution and were washed with binding buffer, which consisted of Dulbecco's Modified Eagle Medium (DMEM) with 2% fetal bovine serum (FBS), 50 mM HEPES (pH 7.2) and 0.1% sodium azide. The washed cells were added to the 96 well plates at a density of 250,000 cells in 0.2 mL of binding buffer. The final concentration of the labeled antibody in each well was 200 μM. […] The filters were counted on a Wallac Wizard 1470 gamma counter (PerkinElmer Life and Analytical Sciences Inc.; Wellesley, Mass.). The binding data was evaluated using NewLigand software (Genentech), which uses the fitting algorithm of Munson and Robard to determine the binding affinity of the antibody (Munson and Robard 1980)

Binder	Kd [1]	koff [1]	kon [1]	Kd [2]
B1	3 nM	0.00064 s⁻¹	210000 M⁻¹ s⁻¹	–
B2	3.1 nM	0.000853 s⁻¹	279000 M⁻¹ s⁻¹	0.6 nM
